From PMC7356578, “Heparin Blocks the Inhibition of Tissue Kallikrein 1 by Kallistatin through Electrostatic Repulsion” (Biomolecules, 2020)
Residue numbers refer to the chain shown, from its start.

B1: Recombinant human kallistatin (rKAL), wild type (natural protein, UniProt P29622 45-427, looked up)
chain: GSPSLKIAPANADFAFRFYYLIASETPGKNIFFSPLSISAAYAMLSLGACSHSRSQILEGLGFNLTELSESDVHRGFQHLLHTLNLPGHGLETRVGSALFLSHNLKFLAKFLNDTMAVYEAKLFHTNFYDTVGTIQLINDHVKKETRGKIVDLVSELKKDVLMVLVNYIYFKALWEKPFISSRTTPKDFYVDENTTVRVPMMLQDQEHHWYLHDRYLPCSVLRMDYKGDATVFFILPNQGKMREIEEVLTPEMLMRWNNLLRKRNFYKKLELHLPKFSISGSYVLDQILPRLGFTDLFSKWADLSGITKQQKLEASKSFHKATLDVDEAGTEAAAATSFAIKFFSAQTNRHILRFNRPFLVVIFSTSTQSVLFLGKVVDPTKP
notes: kallistatin (SERPINA4), human, residues 45-427; Vector pE-SUMO3; purified on a HisTrap column, so the SUMO3 fusion probably carries a His tag that leaves with SUMO3; During storage or crystallisation part of the protein is cleaved between F387 and F388 (P2-P1) by an unknown protease; the crystal structures hold this cleaved form; also called rKAL-WT; SERPINA4; source: E. coli BL21 (DE3), purified …
B2: rKAL-R259D (natural protein, human, UniProt P29622 45-427, looked up)
chain: B1 chain with R215D
notes: kallistatin (SERPINA4), human, residues 45-427; source: E. coli BL21 (DE3), purified (HisTrap FF crude, SENP2 digestion, HiTrap SP)
B3: rKAL-312/313D (natural protein, human, UniProt P29622 45-427, looked up)
chain: B1 chain with K268D, K269D
notes: kallistatin (SERPINA4), human, residues 45-427; double mutant of K312 and K313 to Asp; also called rKAL-K312/313D; source: E. coli BL21 (DE3), purified (HisTrap FF crude, SENP2 digestion, HiTrap SP)
B4: rKAL-R300D (natural protein, human, UniProt P29622 45-427, looked up)
chain: B1 chain with R256D
notes: as for B2
B5: rKAL-307/308D (natural protein, human, UniProt P29622 45-427, looked up)
chain: B1 chain with K263D, R264D
notes: kallistatin (SERPINA4), human, residues 45-427; double mutant of K307 and R308 to Asp; also called rKAL-K307/308D; source: E. coli BL21 (DE3), purified (HisTrap FF crude, SENP2 digestion, HiTrap SP)
B6: rKAL-R394D (natural protein, human, UniProt P29622 45-427, looked up)
chain: B1 chain with R350D
notes: as for B2
B7: Recombinant human tissue kallikrein 1 (KLK1), wild type (enzyme)
chain: not shown
notes: tissue kallikrein 1 (KLK1), human, residues 25-262; Vector pE-SUMO3; also called kallikrein-related peptidase 1

How the values were obtained:
Conditions in all cases: both partners purified
[1] = molecular target: B7; assay: kinetics of protease inhibition (discontinuous assay); pseudo-first-order; 10 nM protease with 100-500 nM kallistatin variant, PBS, 0.1% PEG 8000, 22 ± 1 °C; apparent second-order rate constant kapp from kobs; k2 = kapp × SI
[2] = molecular target: B7; assay: stoichiometry of inhibition by titration of residual protease activity; 1 µM protease with increasing kallistatin variant in PBS, 0.1% PEG 8000, 2 h, 37 °C; residual activity on 0.2 mM H-D-Val-Leu-Arg-AMC; intercept on the abscissa
[3] = molecular target: B1; assay: SDS-stable covalent serpin-protease complex on reducing SDS-PAGE; 2 µg rKAL mixed with 0.5-1 µg KLK1 (2-3 min), 5 µg KLK1-99Lm (20 min) or 0.5 µg KLK1-70Lm (2 min) at room temperature, no heparin; Coomassie stain

Row | k2 (kapp × SI, second-order rate constant) [1] | kapp (apparent second-order rate constant) [1] | SI (stoichiometry of inhibition) [2] | binding result [3] | Binder
1 | 3400 M⁻¹ s⁻¹ | 2400 M⁻¹ s⁻¹ | 1.4 |  | B1
2 | 3500 M⁻¹ s⁻¹ | 2200 M⁻¹ s⁻¹ | 1.6 |  | B2
3 | 1500 M⁻¹ s⁻¹ | 1000 M⁻¹ s⁻¹ | 1.5 |  | B3
4 | 2900 M⁻¹ s⁻¹ | 1600 M⁻¹ s⁻¹ | 1.8 |  | B4
5 | 2000 M⁻¹ s⁻¹ | 1300 M⁻¹ s⁻¹ | 1.5 |  | B5
6 | 1800 M⁻¹ s⁻¹ | 1000 M⁻¹ s⁻¹ | 1.8 |  | B6
7 |  |  |  | binds | B7
